According to patent publication US20230414709A1 (TRUSTEES OF COLUMBIA UNIVERSITY IN THE CITY OF NEW YORK, published 2023):
Substitutions are numbered along the chain they refer to. Each block holds one binder with its values, some of them ahead of it.

What was measured:
mouse megalin [1] = molecular target: T1, mouse megalin (mouse, UniProt A2ARV4 26-4660); experiment: cell-based or functional assay
mouse megalin [2] = molecular target: T1, mouse megalin; experiment: cell-based or functional assay; remark: listed apart in the source
[3] = molecular target: the molecule itself; experiment: Western blot of purified NGAL and of NGAL recovered from mouse urine, homodimer band against monomer band
Experimental: FIGS. 22A-22B. FIG. 22A. Left: Western blot of different species of NGAL. Wild type NGAL forms protein dimers (46-50 KDa) from monomers (at 23-25 KDa). Similarly the Mutant1 (K3 NGAL) forms dimers from monomers. However, Mutant2 (K3Cys) only forms monomers. Right. NGAL proteins (Wt, Mut1 and Mut2) were injected into mice, and the NGAL proteins in the urine (uWt=urinary wild-type protein; uMut1=urinary Mut1 K3 and uMut2=urinary Mut2 K3Cys) were collected at two different time points, and analyzed by Western Blot. For each protein (uWt, uMut1 and uMut2), the 1st lane on the Western blot represents proteins that were collected in the urine 20 min. after the injection and the 2nd lane on the Western blot represents proteins that were collected from the mouse at 180 min. after the injection. Very low levels of uWt appear in urine, whereas higher levels of both uMut1 and uMut2 appear in urine. uMut1 forms both monomers and dimers, whereas uMut2 only forms monomers. FIG. 22B. Mice were injected with NGAL proteins (Wt, Mut1 and Mut2) that were labeled with the dye Alexa Fluor™ 568 (Molecular Probes-Invitrogen), which covalently attaches to the proteins. […]

T1 sequence (A2ARV4 26-4660 limits assumed): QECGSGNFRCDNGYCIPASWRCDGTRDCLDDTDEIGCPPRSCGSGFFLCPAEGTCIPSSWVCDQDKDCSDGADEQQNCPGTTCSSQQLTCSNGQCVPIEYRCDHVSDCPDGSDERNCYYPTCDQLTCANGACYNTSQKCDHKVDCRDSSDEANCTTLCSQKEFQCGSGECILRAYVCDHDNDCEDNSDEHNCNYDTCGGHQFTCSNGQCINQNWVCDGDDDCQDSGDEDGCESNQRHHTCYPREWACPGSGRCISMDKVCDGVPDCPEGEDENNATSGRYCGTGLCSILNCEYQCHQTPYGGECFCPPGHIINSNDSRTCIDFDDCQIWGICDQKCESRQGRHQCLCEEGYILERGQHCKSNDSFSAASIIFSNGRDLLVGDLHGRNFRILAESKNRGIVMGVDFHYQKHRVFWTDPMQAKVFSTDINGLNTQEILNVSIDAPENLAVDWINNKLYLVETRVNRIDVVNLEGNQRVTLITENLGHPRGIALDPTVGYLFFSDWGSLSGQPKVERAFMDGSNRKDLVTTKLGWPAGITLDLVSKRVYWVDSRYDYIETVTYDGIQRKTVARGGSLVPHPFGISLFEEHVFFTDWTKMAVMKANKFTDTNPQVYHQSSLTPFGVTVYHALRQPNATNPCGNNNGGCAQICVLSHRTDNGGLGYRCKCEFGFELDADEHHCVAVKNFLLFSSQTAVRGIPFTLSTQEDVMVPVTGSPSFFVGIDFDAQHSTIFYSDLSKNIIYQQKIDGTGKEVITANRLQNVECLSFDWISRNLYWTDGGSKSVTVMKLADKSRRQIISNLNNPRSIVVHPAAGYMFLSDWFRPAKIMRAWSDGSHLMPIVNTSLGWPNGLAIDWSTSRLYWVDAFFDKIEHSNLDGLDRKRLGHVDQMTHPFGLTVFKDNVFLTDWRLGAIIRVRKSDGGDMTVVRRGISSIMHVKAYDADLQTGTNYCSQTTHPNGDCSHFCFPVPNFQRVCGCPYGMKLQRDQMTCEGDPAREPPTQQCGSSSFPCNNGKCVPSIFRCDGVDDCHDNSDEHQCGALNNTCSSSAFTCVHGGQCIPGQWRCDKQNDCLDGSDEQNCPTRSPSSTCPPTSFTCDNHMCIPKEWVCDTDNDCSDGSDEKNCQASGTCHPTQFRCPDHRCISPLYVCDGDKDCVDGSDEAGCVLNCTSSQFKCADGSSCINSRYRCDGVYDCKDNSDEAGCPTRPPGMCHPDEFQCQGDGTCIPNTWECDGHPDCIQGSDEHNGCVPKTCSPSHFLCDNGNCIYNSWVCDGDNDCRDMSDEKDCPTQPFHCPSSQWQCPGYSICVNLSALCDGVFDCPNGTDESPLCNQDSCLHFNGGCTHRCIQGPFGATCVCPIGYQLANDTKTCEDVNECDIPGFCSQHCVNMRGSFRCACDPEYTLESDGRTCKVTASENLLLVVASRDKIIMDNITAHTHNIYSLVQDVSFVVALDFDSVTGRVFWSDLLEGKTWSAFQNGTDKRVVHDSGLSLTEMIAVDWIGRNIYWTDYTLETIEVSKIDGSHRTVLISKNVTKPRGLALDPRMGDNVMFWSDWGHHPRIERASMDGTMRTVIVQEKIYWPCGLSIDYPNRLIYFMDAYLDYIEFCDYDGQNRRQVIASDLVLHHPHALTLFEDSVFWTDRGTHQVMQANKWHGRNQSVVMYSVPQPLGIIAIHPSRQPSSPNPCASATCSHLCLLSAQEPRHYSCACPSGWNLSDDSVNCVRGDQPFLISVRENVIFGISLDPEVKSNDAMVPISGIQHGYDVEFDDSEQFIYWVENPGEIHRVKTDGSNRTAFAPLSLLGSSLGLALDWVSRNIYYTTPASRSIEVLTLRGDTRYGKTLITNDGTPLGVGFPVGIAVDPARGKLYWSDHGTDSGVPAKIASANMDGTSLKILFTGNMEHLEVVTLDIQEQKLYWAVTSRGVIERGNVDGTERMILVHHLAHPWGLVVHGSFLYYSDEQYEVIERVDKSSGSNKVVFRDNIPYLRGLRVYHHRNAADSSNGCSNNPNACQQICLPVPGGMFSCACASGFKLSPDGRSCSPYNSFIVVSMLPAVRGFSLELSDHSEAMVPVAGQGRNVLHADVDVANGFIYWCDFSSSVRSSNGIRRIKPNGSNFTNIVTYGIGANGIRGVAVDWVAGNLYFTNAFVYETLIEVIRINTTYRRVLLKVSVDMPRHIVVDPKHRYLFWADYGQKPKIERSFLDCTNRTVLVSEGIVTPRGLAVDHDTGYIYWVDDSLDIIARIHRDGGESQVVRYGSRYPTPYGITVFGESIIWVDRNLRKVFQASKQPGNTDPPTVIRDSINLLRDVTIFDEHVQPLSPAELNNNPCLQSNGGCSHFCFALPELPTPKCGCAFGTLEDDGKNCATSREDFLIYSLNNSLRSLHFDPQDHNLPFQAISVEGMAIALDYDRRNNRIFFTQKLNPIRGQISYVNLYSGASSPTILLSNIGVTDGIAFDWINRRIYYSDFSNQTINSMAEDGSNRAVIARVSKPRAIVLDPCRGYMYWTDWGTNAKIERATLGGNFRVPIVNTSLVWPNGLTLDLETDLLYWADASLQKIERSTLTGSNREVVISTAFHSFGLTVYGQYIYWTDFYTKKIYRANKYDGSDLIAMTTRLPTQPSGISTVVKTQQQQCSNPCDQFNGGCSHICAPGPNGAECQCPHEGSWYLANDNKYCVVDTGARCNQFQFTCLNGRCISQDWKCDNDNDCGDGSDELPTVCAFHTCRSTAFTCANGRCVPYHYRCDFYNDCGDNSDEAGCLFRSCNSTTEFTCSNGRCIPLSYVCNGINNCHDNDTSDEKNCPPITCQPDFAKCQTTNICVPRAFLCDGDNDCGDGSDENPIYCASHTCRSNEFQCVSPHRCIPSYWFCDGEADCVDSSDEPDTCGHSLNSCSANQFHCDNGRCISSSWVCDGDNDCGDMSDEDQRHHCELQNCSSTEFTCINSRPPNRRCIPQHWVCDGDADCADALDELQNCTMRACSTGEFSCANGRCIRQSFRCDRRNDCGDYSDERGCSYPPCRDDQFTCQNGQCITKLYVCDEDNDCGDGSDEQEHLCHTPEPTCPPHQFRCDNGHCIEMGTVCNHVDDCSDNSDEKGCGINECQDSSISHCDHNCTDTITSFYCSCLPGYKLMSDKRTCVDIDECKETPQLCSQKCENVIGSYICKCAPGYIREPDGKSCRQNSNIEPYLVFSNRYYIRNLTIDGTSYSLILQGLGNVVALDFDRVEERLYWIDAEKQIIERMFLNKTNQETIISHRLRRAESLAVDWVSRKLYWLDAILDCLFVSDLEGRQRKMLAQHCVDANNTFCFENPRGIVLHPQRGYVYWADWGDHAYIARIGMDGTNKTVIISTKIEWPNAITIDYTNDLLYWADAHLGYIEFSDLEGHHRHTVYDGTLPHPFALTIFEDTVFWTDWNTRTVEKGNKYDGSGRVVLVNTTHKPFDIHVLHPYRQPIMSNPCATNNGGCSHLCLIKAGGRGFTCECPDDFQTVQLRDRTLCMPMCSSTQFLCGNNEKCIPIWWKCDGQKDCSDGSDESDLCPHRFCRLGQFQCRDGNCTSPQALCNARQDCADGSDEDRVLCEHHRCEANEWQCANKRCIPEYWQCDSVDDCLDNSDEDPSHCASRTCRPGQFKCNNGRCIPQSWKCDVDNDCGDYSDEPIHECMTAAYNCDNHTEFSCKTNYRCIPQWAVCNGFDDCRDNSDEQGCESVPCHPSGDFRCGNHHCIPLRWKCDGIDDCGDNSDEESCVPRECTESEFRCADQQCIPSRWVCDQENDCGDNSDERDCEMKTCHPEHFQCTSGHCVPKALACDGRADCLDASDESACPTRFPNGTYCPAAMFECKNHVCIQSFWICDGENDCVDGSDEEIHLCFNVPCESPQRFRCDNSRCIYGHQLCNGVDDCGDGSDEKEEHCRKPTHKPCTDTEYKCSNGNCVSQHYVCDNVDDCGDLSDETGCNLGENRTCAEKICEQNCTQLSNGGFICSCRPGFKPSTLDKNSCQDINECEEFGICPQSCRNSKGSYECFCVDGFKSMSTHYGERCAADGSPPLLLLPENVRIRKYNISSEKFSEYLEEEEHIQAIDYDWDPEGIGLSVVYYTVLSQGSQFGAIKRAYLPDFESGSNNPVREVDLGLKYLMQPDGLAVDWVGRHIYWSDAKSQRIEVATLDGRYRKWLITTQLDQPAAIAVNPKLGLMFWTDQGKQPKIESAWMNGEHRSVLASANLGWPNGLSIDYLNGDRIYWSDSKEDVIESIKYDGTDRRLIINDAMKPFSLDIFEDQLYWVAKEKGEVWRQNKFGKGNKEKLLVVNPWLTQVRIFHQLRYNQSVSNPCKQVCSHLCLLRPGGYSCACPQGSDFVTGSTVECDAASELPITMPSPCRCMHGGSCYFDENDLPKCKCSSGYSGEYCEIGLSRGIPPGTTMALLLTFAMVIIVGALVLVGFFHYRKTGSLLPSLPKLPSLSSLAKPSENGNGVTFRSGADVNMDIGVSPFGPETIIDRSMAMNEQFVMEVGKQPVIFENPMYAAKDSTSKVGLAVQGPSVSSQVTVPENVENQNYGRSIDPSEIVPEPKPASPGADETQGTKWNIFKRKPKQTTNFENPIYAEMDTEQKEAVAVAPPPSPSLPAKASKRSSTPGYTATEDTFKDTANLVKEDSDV

B1: NGAL mutant A1 (ligand)
chain: QDSTSDLIPAPPLSSVPLQQNFQDNQFQGKWYVVGLAGNAILREDKDPQKMYATIYELKEDKSYNVTSVLFRKKKCDYWIRTFVPGCQPGEFTLGNIKSYPGLTSYLVRVVSTNYNQHAMVFFKKVSQNREYFKITLYGRTKELTSELKENFIRFSKSLGLPENHIVFPVPIDQCIDG
Accumulation 3 hours after i.p. injection (%): Urine (Ngal-enterochelin-55Fe3+ complex, C57BL/6 mice) (mouse megalin [1]): 0.55%

B2: NGAL mutant D2 (ligand)
chain: B1 chain with S15K, K62G
Accumulation 3 hours after i.p. injection (%): Urine (Ngal-enterochelin-55Fe3+ complex, C57BL/6 mice) (mouse megalin [1]): 0.11%

B3: NGAL mutant C1 (ligand)
chain: B1 chain with S15K, K50T, R72Q, R130Q, K149Q, K157Q
Accumulation 3 hours after i.p. injection (%): Urine (Ngal-enterochelin-55Fe3+ complex, C57BL/6 mice) (mouse megalin [1]): 0.72%

B6: NGAL mutant B4 (ligand)
chain: B1 chain with S15K, K46E, K98Q
Accumulation 3 hours after i.p. injection (%): Urine (Ngal-enterochelin-55Fe3+ complex, C57BL/6 mice) (mouse megalin [1]): 0.13%

B7: NGAL mutant B2 (ligand)
chain: B1 chain with K46E, H118F, H165N
Accumulation 3 hours after i.p. injection (%): Urine (Ngal-enterochelin-55Fe3+ complex, C57BL/6 mice) (mouse megalin [1]): 1.22%

B9: NGAL mutant B1 (ligand)
chain: B1 chain with S15K, K98Q, H118F, H165N
Accumulation 3 hours after i.p. injection (%): Urine (Ngal-enterochelin-55Fe3+ complex, C57BL/6 mice) (mouse megalin [1]): 0.22%

B11: K3 NGAL mutant protein (ligand)
chain: B1 chain with K46E, K73D, K74D, K75G, K98Q, H118F, R130Q, K149Q, H165N
notes: Mutant of human NGAL, made in E. coli as for the wild type (GST fusion vector); Runs as monomer and dimer on Western blot; also called K6 (i.e, K3); Mut1
percent of injected Ngal:Ent:59FeIII complex delivered to mouse urine in 3 hrs (mouse megalin [2]): 23% | Accumulation 3 hours after i.p. injection (%): Urine (Ngal-enterochelin-55Fe3+ complex, C57BL/6 mice) (mouse megalin [1]): 19.6% | binding result [3]: binds

B18: K3Cys protein (ligand)
chain: B1 chain with K46E, K73D, K74D, K75G, C87S, K98Q, H118F, R130Q, K149Q, H165N
notes: only monomers seen; also called K3Cys NGAL; Mut2
percent of injected Ngal:Ent:59FeIII complex delivered to mouse urine in 3 hrs (mouse megalin [2]): ~100% | binding result [3]: no binding

B19: NGAL mutant D1 (ligand)
chain: B1 chain with S15K, K73D, K74D, K75G
Accumulation 3 hours after i.p. injection (%): Urine (Ngal-enterochelin-55Fe3+ complex, C57BL/6 mice) (mouse megalin [1]): 0.1%

B20: NGAL mutant C5 (ligand)
chain: B1 chain with S15K, R72Q, K157Q
Accumulation 3 hours after i.p. injection (%): Urine (Ngal-enterochelin-55Fe3+ complex, C57BL/6 mice) (mouse megalin [1]): 0.26%

B21: NGAL mutant A2 (ligand)
chain: B1 chain with R140Q, K142Q
Accumulation 3 hours after i.p. injection (%): Urine (Ngal-enterochelin-55Fe3+ complex, C57BL/6 mice) (mouse megalin [1]): 0.18%

B29: NGAL mutant C3 (ligand)
chain: B1 chain with K50T, R72Q, K149Q, K157Q
Accumulation 3 hours after i.p. injection (%): Urine (Ngal-enterochelin-55Fe3+ complex, C57BL/6 mice) (mouse megalin [1]): 0.44%

B30: NGAL mutant B3 (ligand)
chain: B1 chain with S15K, K46E, H165N
Accumulation 3 hours after i.p. injection (%): Urine (Ngal-enterochelin-55Fe3+ complex, C57BL/6 mice) (mouse megalin [1]): 0.3%

B31: NGAL mutant A3 (ligand)
chain: B1 chain with S15K, R43Q
Accumulation 3 hours after i.p. injection (%): Urine (Ngal-enterochelin-55Fe3+ complex, C57BL/6 mice) (mouse megalin [1]): 0.23%

Further lines, results first:

Accumulation 3 hours after i.p. injection (%): Urine (Ngal-enterochelin-55Fe3+ complex, C57BL/6 mice) (mouse megalin [1]): 9.6%
B4: NGAL mutant K2 (ligand)
chain: B1 chain with K73D, K74D, K75G, K98Q, H118F, R130Q, K149Q, H165N

Accumulation 3 hours after i.p. injection (%): Urine (Ngal-enterochelin-55Fe3+ complex, C57BL/6 mice) (mouse megalin [1]): 0.3%
B5: NGAL mutant H3 (ligand)
chain: B1 chain with S15K, H118F, K149Q, H165N

Accumulation 3 hours after i.p. injection (%): Urine (Ngal-enterochelin-55Fe3+ complex, C57BL/6 mice) (mouse megalin [1]): 0.05%
B8: NGAL mutant I5 (ligand)
chain: B1 chain with K62G, K73D, K74D, K75G, R130Q

Accumulation 3 hours after i.p. injection (%): Urine (Ngal-enterochelin-55Fe3+ complex, C57BL/6 mice) (mouse megalin [1]): 2.9%
B10: NGAL mutant K5 (ligand)
chain: B1 chain with K46E, K98Q, H118F, R130Q, K149Q, H165N

Accumulation 3 hours after i.p. injection (%): Urine (Ngal-enterochelin-55Fe3+ complex, C57BL/6 mice) (mouse megalin [1]): 0.11%
B12: NGAL mutant F2 (ligand)
chain: B1 chain with S15K, K46E, K59Q

Accumulation 3 hours after i.p. injection (%): Urine (Ngal-enterochelin-55Fe3+ complex, C57BL/6 mice) (mouse megalin [1]): 1.9%
B13: NGAL mutant K1 (ligand)
chain: B1 chain with K46E, K59Q, K98Q, H118F, R130Q, K149Q, H165N

Accumulation 3 hours after i.p. injection (%): Urine (Ngal-enterochelin-55Fe3+ complex, C57BL/6 mice) (mouse megalin [1]): 1.23%
B14: NGAL mutant F5 (ligand)
chain: B1 chain with K46E, K149Q, H165N

Accumulation 3 hours after i.p. injection (%): Urine (Ngal-enterochelin-55Fe3+ complex, C57BL/6 mice) (mouse megalin [1]): 6%
B15: NGAL mutant I1 (ligand)
chain: B1 chain with K73D, K74D, K75G, R130Q

Accumulation 3 hours after i.p. injection (%): Urine (Ngal-enterochelin-55Fe3+ complex, C57BL/6 mice) (mouse megalin [1]): 0.37%
B16: NGAL mutant H1 (ligand)
chain: B1 chain with S15K, H165N

percent of injected Ngal:Ent:59FeIII complex delivered to mouse urine in 3 hrs (mouse megalin [2]): < 0.1%
B17: wild-type human NGAL (Neutrophil Gelatinase-Associated Lipocalin) (ligand)
chain: B1 chain with S15K

Accumulation 3 hours after i.p. injection (%): Urine (Ngal-enterochelin-55Fe3+ complex, C57BL/6 mice) (mouse megalin [1]): 6.9%
B22: NGAL mutant I3 (ligand)
chain: B1 chain with S15K, K62G, K73D, K74D, K75G, K98Q

Accumulation 3 hours after i.p. injection (%): Urine (Ngal-enterochelin-55Fe3+ complex, C57BL/6 mice) (mouse megalin [1]): 0.51%
B23: NGAL mutant F1 (ligand)
chain: B1 chain with K46E, K59Q

Accumulation 3 hours after i.p. injection (%): Urine (Ngal-enterochelin-55Fe3+ complex, C57BL/6 mice) (mouse megalin [1]): 0.28%
B24: NGAL mutant G1 (ligand)
chain: B1 chain with R43Q, K149Q

Accumulation 3 hours after i.p. injection (%): Urine (Ngal-enterochelin-55Fe3+ complex, C57BL/6 mice) (mouse megalin [1]): 0.24%
B25: NGAL mutant H5 (ligand)
chain: B1 chain with K98Q, H165N

Accumulation 3 hours after i.p. injection (%): Urine (Ngal-enterochelin-55Fe3+ complex, C57BL/6 mice) (mouse megalin [1]): 1.65%
B26: NGAL mutant F4 (ligand)
chain: B1 chain with K46E, K149Q

Accumulation 3 hours after i.p. injection (%): Urine (Ngal-enterochelin-55Fe3+ complex, C57BL/6 mice) (mouse megalin [1]): 0.27%
B27: NGAL mutant H2 (ligand)
chain: B1 chain with K98Q, H118F, R130Q, K149Q, H165N

Accumulation 3 hours after i.p. injection (%): Urine (Ngal-enterochelin-55Fe3+ complex, C57BL/6 mice) (mouse megalin [1]): 0.17%
B28: NGAL mutant G3 (ligand)
chain: B1 chain with S15K, K157Q
